Tests used:
Assay type in all cases: cell-based
gene editing with dCas9 = assay: Screen of 322 new SSAP proteins, gene editing activity with dCas9 (Table 5); design: dCas9 with SSAP activity: scale not given here
Summary of the method: (§1)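 First, 322 new single-strand annealing proteins are identified from sequences. Next they are synthesized. Finally each is assayed for editing in combination with Cas9 and, separately, dCas9.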

[1] = system: gene editing with Cas9 and dCas9; assay: Screen of 322 new SSAP proteins, activity across all experiments (Cas9 and dCas9, Table 5); design: scale not given here
Summary of the method: as §1

gene editing with Cas9 = assay: Screen of 322 new SSAP proteins, gene editing activity with Cas9 (Table 5); design: Cas9 with SSAP activity: scale not given here
Summary of the method: as §1

Molecule | dCas9 with SSAP activity (gene editing with dCas9) | dCas9 with SSAP activity (normalized) (gene editing with dCas9) | Activity across all experiments [1] | Cas9 with SSAP activity (gene editing with Cas9) | Cas9 with SSAP activity (normalized) (gene editing with Cas9)
SSAP_298: SEQ ID NO: 467; Nocardia aurea (protein, listed as Nocardia aurea) SESISAAADAQKVTPRIVLDRHRDAFAQVLPPTINLDRWLRLAESAINASAGLLDIFRRDRGASALKALMKCAQLGHEPGSGLFHLVPKGQAIEGWEDYKGILQRILRSALYAKVVVAPVYANDEYAFDVNVDERPRHKQAAGDRGEPVRAYAYAVHRDGSTSTIAEATPAMIAGAKAKGHKTDASTSPWQNPRAPMHQKVAVRELERFVSTSAVDLRVTGDVTDLIIEEP | −3.790 | −0.578 | −1.640 | 0.510 | 0.610
SSAP_126: SEQ ID NO: 295; Marispirochaeta aestuarii (protein, listed as Marispirochaeta aestuarii) RTDGTKEAGAAATAPTEGKAPAKAHKPADTIGAMIEKLKPQIERALPKHVTPDRMARMALTAIRNNPKLGQAEAVSLMGSIIQASQLGLEPNTPLGQCYIIPYNSKNGMQAQFQMGYKGIVDLAHRSGQYRQLTAHPVDEADEFRYSYGLNPDLVHVPAEKPSGKITHYYAVYHLTNGGFDFRVWSREKVEAHAKQYSKSFSSGPWQTNFDQMACKTVMIDLLRYAPKSVEIAKATSADNRTHTINPEDPDLNIDTIDGDFELEGEER | −3.777 | −0.714 | −3.591 | −3.406 | −0.596
SSAP_84: SEQ ID NO: 253; Bet Fimbriiglobus ruber (protein, Fimbriiglobus ruber) TDIAHRSYSAPQLSLIRRTVAKDTNQDEFDLFIEICKQQGLDPFKKQIFAQVYNKDKADKRQIVIVTSIDGYRAKAQRCGDYRPAEEETRFEADAALKIRRQPMGSFVRSCGLQVRPGQGVVSRVGEARWDEFAPLDDAEFDWVDTGETWPDTGKPKKKKVAKSAKKTLKEGNWKNMPHVMLGKCAEAQALGGGGRKRSAACTSKRRWTRSTWT | 1.313 | 1.563 | −0.284 | −1.881 | −0.590
SSAP_293: SEQ ID NO: 462; Brevibacillus porteri (protein, Brevibacillus porter, Brevibacillus porteri) ADQNKLVVIYNNLEKLLDSKREAMPTSFNKTRFLQNCMTVLQETKDIELCNPTTVARTMLKGAFLGLDFFNKECYAVVYKGSVEFQTDYKGEVKLAKKYSTKPVREVYAKLVREGDEFAEEINSGNQTINFRPKPFNNEEILGAFAVVNYMDGTMAYDIMSKEEIEKIKENFSRKSKQTGEYSKAWVVTPGEMYKKTVLRRLCKNIDLDFDTIEQRQAFEDAGDVDFNQEVKPAQQSPLNSTVIEAEFEEVSEEQTNAAEQE | −3.846 | −0.563 | −4.559 | −5.271 | −0.961
SSAP_318: SEQ ID NO: 487; Shewanella morhuae (protein, listed as Shewanella morhuae) QTAQVKLSVPHQQVYQDNFNYLSSQVVGHLVDLNEEIGYLNQIVFNSLSTASPLDVAAPWSVYGLLLNVCRLGLSLNPEKKLAYVMPSWSETGEIIMKLYPGYRGEIAIASNFNVIKNANAVLVYENDHFRIQAATGEIEHFVTSLSIDPRVRGACSGGYCRSVLMDNTIQISYLSIEEMNAIAQNQIEANMGNTPWNSIWRTEMNRVALYRRAAKDWRQLIKATPEIQSALSDTEY | −3.743 | −0.597 | −1.849 | 0.045 | 0.060

Reference: US20250034594A1, “RNA-GUIDED GENOME RECOMBINEERING AT KILOBASE SCALE” (THE BOARD OF TRUSTEES OF THE LELAND STANFORD JUNIOR …, priority 2021, published 2025)
